Bounds are passed on as bounds.

Targets include HLA-A*31:01; HLA-A*11:01; HLA-A*03:01; HLA-A*33:01; HLA-A*68:01; HLA-A*02:03.
Holding throughout (test): IEDB peptide-MHC binding, purified MHC/competitive/radioactivity; filed as Kd, often an IC50 or EC50 that approximates it; ≥ and ≤ were set here for values at or beyond the usual limits of such assays
In the next experiment the target is HLA-A*02:06. The settings on record: source organism: Dengue virus 3 Martinique/1243/1999.
Where [1] appears, read: source organism: Vaccinia virus WR.
Where [2] appears, read: source organism: Mammarenavirus guanaritoense.
Where [3] appears, read: source organism: SARS coronavirus Tor2.

Consider SIKDVIHDY, for which the Kd (usually the constant that tells how readily two partners part at equilibrium) was 2260 nM with HLA-A*31:01 (setting [1]); 2810 nM with HLA-A*11:01 (setting [1]); 2830 nM with HLA-A*03:01 (setting [1]); 19400 nM with HLA-A*33:01 (setting [1]); 3550 nM with HLA-A*68:01 (setting [1]).

In the case of SIVLHIQLEH, the Kd was 11800 nM with HLA-A*31:01 (setting [2]); 1070 nM in the experiment with HLA-A*11:01 (setting [2]); 1460 nM with HLA-A*03:01 (setting [2]); 8100 nM in the experiment with HLA-A*33:01 (setting [2]); at least 22100 nM with HLA-A*68:01 (setting [2]).

For SLGLILLKMV, the dissociation constant Kd with HLA-A*02:03 (source organism: Dengue virus 4 Philippines/H241/1956) came out at 58.2 nM.

In the case of SLIGLTARA, the Kd in the experiment with HLA-A*02:03 (source organism: Dengue virus 1 Brazil/97-11/1997) was found to be 4.13 nM.

For the sequence SMDVLAEKKY, the Kd was 17100 nM with HLA-A*31:01 (setting [1]); at least 10000 nM in the experiment with HLA-A*11:01 (setting [1]); at least 28500 nM in the experiment with HLA-A*03:01 (setting [1]); at least 29300 nM with HLA-A*33:01 (setting [1]); 2640 nM with HLA-A*68:01 (setting [1]).

SQIFNIISY: the Kd turned out to be 915 nM with HLA-A*31:01 (setting [1]); 53.5 nM with HLA-A*11:01 (setting [1]); 675 nM with HLA-A*03:01 (setting [1]); 996 nM in the experiment with HLA-A*33:01 (setting [1]); 158 nM in the experiment with HLA-A*68:01 (setting [1]).

Regarding SSVQLSNNKY, the Kd in the experiment with HLA-A*31:01 (setting [1]) was 2870 nM; in the experiment with HLA-A*11:01 (setting [1]), 141 nM; in the experiment with HLA-A*03:01 (setting [1]), 4650 nM; with HLA-A*33:01 (setting [1]), 10100 nM; in the experiment with HLA-A*68:01 (setting [1]) it was 65.7 nM.

Regarding STCFKLMLK, the dissociation constant Kd with HLA-A*31:01 (setting [3]) worked out at 26.5 nM; with HLA-A*11:01 (setting [3]), 0.553 nM; with HLA-A*03:01 (setting [3]), 0.808 nM; with HLA-A*33:01 (setting [3]), 1450 nM; with HLA-A*68:01 (setting [3]), 1.65 nM.

As for STQSVLCVK, the dissociation constant Kd worked out at 115 nM with HLA-A*31:01 (setting [1]); 0.756 nM with HLA-A*11:01 (setting [1]); 149 nM in the experiment with HLA-A*03:01 (setting [1]); 15600 nM in the experiment with HLA-A*33:01 (setting [1]); 3.14 nM with HLA-A*68:01 (setting [1]).

For the sequence STYSDICSK, the Kd with HLA-A*31:01 (setting [1]) stood at 80.2 nM; with HLA-A*11:01 (setting [1]) it was 0.706 nM; in the experiment with HLA-A*03:01 (setting [1]), 23.6 nM; with HLA-A*33:01 (setting [1]), 988 nM; in the experiment with HLA-A*68:01 (setting [1]), 2.06 nM.

Turning to TIAGGVCYY, the dissociation constant Kd was 16200 nM with HLA-A*31:01 (setting [1]); 94.7 nM with HLA-A*11:01 (setting [1]); 110 nM in the experiment with HLA-A*03:01 (setting [1]); at least 51000 nM in the experiment with HLA-A*33:01 (setting [1]); 605 nM with HLA-A*68:01 (setting [1]).

For the sequence TILDDNLYK, the dissociation constant (Kd) in the experiment with HLA-A*31:01 (setting [1]) is at least 50300 nM; in the experiment with HLA-A*11:01 (setting [1]), 14.8 nM; with HLA-A*03:01 (setting [1]), 390 nM; with HLA-A*33:01 (setting [1]), at least 77700 nM; in the experiment with HLA-A*68:01 (setting [1]), 1180 nM.

TIPIGMQFDK: the dissociation constant Kd with HLA-A*31:01 (setting [1]) was 17400 nM; with HLA-A*11:01 (setting [1]), 4.02 nM; with HLA-A*03:01 (setting [1]) it was 6040 nM; in the experiment with HLA-A*33:01 (setting [1]), at least 70000 nM; with HLA-A*68:01 (setting [1]), 38.1 nM.

As for TLDTMDDMKK, the Kd with HLA-A*31:01 (setting [1]) is at least 30200 nM; with HLA-A*11:01 (setting [1]), 287 nM; with HLA-A*03:01 (setting [1]), 762 nM; in the experiment with HLA-A*33:01 (setting [1]), at least 70000 nM; in the experiment with HLA-A*68:01 (setting [1]) it was 2150 nM.

On to TLQGPPGTGK, for which the Kd in the experiment with HLA-A*31:01 (setting [3]) amounted to 3290 nM; with HLA-A*11:01 (setting [3]), 264 nM; in the experiment with HLA-A*03:01 (setting [3]), 282 nM; with HLA-A*33:01 (setting [3]) it was 8190 nM; in the experiment with HLA-A*68:01 (setting [3]), 225 nM.

Take TQFNFNGHTY: the dissociation constant (Kd) with HLA-A*31:01 (setting [1]) amounted to 4060 nM; with HLA-A*11:01 (setting [1]) it was 965 nM; with HLA-A*03:01 (setting [1]), 218 nM; with HLA-A*33:01 (setting [1]), 16100 nM; in the experiment with HLA-A*68:01 (setting [1]) it was 266 nM.

Regarding TSMMVILPDK, the Kd is 455 nM in the experiment with HLA-A*31:01 (setting [1]); 1.8 nM with HLA-A*11:01 (setting [1]); 141 nM in the experiment with HLA-A*03:01 (setting [1]); at least 23000 nM in the experiment with HLA-A*33:01 (setting [1]); 27 nM with HLA-A*68:01 (setting [1]).

As for VFAYVGCYNK, the Kd was 184 nM with HLA-A*31:01 (setting [3]); 350 nM with HLA-A*11:01 (setting [3]); 1530 nM with HLA-A*03:01 (setting [3]); 340 nM with HLA-A*33:01 (setting [3]); 65.3 nM with HLA-A*68:01 (setting [3]).

As for VLNRHAITMY, the dissociation constant Kd with HLA-A*31:01 (setting [1]) is at least 70000 nM; in the experiment with HLA-A*11:01 (setting [1]), 966 nM; with HLA-A*03:01 (setting [1]), 94.4 nM; with HLA-A*33:01 (setting [1]), at least 70000 nM; with HLA-A*68:01 (setting [1]) it was 16800 nM.

As to VQYENLKYTV, the Kd with HLA-A*02:06 was found to be 61 nM.

As for WLSMTDEMR, the Kd is 1790 nM with HLA-A*31:01 (setting [1]); at least 46300 nM with HLA-A*11:01 (setting [1]); at least 78000 nM in the experiment with HLA-A*03:01 (setting [1]); 6280 nM with HLA-A*33:01 (setting [1]); 34.4 nM with HLA-A*68:01 (setting [1]).

With YIFPGDKTSY, the Kd with HLA-A*31:01 (setting [1]) was 18700 nM; with HLA-A*11:01 (setting [1]) it was 1260 nM; with HLA-A*03:01 (setting [1]), 258 nM; in the experiment with HLA-A*33:01 (setting [1]) it was at least 70000 nM; with HLA-A*68:01 (setting [1]), 40.7 nM.

In the case of YLSTFNMWR, the Kd with HLA-A*31:01 (setting [1]) came out at 64.7 nM; in the experiment with HLA-A*11:01 (setting [1]), 666 nM; with HLA-A*03:01 (setting [1]), 201 nM; with HLA-A*33:01 (setting [1]), 94.5 nM; with HLA-A*68:01 (setting [1]), 3.42 nM.

As to YVKSPKFSK, the Kd with HLA-A*31:01 (setting [3]) turned out to be 2320 nM; in the experiment with HLA-A*11:01 (setting [3]) it was 259 nM; with HLA-A*03:01 (setting [3]) it was 6980 nM; in the experiment with HLA-A*33:01 (setting [3]), 7520 nM; with HLA-A*68:01 (setting [3]), 65.5 nM.

These data come from the Immune Epitope Database (IEDB).
